8 molecules from US20180244756A1 (US Dept. of Health and Human Services, published 2018) can be followed below.

T1: MERS-CoV S1 protein, England1 strain, soluble (MERS-CoV, England1 strain, UniProt K9N5Q8 19-752)
T1 sequence: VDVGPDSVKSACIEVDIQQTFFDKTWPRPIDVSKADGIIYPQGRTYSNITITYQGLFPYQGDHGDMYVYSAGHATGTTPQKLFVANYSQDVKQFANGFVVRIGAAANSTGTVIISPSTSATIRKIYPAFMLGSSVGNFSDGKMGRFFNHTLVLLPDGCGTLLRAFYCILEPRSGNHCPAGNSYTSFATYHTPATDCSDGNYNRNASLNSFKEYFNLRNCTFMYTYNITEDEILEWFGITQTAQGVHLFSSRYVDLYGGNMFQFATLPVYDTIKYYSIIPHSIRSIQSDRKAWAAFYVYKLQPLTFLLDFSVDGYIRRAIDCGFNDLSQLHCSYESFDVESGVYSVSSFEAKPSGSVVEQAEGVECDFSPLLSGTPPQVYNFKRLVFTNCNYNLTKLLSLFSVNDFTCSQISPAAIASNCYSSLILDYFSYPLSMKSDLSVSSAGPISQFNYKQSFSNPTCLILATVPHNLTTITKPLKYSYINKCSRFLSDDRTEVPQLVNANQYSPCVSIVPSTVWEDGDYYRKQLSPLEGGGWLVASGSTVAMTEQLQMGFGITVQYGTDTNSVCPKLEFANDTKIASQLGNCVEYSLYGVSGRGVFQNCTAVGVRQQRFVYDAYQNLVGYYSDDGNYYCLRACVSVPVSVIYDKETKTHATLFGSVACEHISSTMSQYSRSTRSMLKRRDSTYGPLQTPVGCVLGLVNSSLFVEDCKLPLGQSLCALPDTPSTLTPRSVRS

T2: MERS-CoV Spike (S) glycoprotein, England1 strain, full length (MERS-CoV, England1 strain, UniProt K9N5Q8 19-1353)
T2 sequence: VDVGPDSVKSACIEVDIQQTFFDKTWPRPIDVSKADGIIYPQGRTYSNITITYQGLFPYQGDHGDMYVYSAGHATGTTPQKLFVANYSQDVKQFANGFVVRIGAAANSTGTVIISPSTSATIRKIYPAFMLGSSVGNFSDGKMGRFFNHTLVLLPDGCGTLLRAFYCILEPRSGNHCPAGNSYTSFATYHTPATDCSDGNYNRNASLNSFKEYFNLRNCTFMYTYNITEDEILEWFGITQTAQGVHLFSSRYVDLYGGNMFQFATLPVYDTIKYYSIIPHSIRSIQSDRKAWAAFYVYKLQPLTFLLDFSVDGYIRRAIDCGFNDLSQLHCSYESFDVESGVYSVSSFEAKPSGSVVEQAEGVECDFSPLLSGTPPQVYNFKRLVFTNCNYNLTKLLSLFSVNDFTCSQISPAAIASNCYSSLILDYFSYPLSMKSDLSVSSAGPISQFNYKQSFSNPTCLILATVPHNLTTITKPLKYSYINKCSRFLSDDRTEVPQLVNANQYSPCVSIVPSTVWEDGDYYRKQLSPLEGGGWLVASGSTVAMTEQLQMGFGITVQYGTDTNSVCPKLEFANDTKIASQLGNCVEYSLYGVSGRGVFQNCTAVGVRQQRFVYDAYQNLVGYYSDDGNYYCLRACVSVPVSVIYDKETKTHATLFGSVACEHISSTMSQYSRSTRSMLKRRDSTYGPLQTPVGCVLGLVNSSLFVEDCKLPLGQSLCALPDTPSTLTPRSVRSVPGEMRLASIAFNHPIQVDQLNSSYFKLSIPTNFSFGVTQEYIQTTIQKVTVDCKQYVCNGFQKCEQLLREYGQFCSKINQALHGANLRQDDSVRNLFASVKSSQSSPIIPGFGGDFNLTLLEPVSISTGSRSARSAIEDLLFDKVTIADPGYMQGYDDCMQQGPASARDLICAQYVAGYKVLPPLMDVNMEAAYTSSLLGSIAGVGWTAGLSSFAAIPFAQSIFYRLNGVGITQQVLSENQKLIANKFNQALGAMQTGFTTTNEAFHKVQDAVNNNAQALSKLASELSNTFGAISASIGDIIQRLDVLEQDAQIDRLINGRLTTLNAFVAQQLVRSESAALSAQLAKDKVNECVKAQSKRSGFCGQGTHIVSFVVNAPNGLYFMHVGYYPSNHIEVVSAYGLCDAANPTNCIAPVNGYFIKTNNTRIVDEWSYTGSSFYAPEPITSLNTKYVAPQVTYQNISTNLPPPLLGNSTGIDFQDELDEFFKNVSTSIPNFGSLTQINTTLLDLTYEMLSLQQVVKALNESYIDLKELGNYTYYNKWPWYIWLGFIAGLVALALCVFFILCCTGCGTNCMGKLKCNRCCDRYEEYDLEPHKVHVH

B1: G2 antibody (antibody, V domains shown)
VH: QVQLQQSGGELVKPGASVKLSCKTSGFTFSSSYISWLKQKPGQSLEWIAWIYAGTGGTEYNQKFTGKAQVTVDTSSSTAYMQFSSLTTEDSAIYYCARGGSSFAMDYWGQGTSVTVSS
VL: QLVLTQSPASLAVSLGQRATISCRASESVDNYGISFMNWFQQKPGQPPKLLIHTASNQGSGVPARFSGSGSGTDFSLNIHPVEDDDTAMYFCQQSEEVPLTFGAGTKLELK
B2: G4 antibody (antibody, V domains shown)
VH: QVQLQQSGPELVRPGVSVKISCKGSGYTFTDYAIHWVKQSHAKSLEWIGVFSTYYGNTNYNQKFKGRATMTVDKSSSTAYMELARLTSEDSAIYYCARKSYYVDYVDAMDYWGQGTSVTVSS
VL: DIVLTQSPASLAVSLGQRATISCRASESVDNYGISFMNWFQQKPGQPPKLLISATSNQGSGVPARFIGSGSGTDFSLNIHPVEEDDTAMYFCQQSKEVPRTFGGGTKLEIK
B3: A10 human antibody (antibody, V domains shown)
VH: QVQLVQSGAEVKKPGSSVKVSCKASGGTFSTYALSWVRQAPGQGLEWMGGIIPIFGTANYAQKFQGRVTITADESTSTAYMELNSLRSEDTAVYYCARGSRSSSSAEYFQHWGQGTLVTVSS
VL: QSALTQPRSVSGSPGQSVTISCTGTSSDVGGYNYVSWYQQHPGKAPKLMIYDVSKRPSGVPDRFSGSKSGNTASLTISGLQAEDEADYYCCSYAGSYTLEVVFGGGTKLTVL
B4: F11 antibody (antibody, V domains shown)
VH: EVKLEESGGGLVKPGGSLKLSCAASGFTFSRYAMSWVRQTPEKRLEWVATINNGGSYSYYPDSVKGRLTISRDNAKNTLYLQMSSLRSEDTALYYCARHYDYDGYYYTMDFWGQGTSVTVSS
VL: DVLMTQIPLSLPVSLGDQASISCRSSQSIVHSNGNTYLEWYLQKPGQSPKPLIYKVSNRISGVPDRFSGSGSGTDFTLKISRVEAEDLGVYYCFQGSHVPYTFGGGTNLEIKR
B5: A2 human antibody (antibody, V domains shown)
VH: QVQLVESGGGLVKPGGSLRLSCAASGFTFSDYYMSWIRQAPGKGLEWVSYISSSGSTIYYADSVKGRFTISRDNAKNSLYLQMNSLRAEDTAVYYCARVGLGSGWYDWFDPWGQGTLVTVSS
VL: QSALTQPPSVSGAPGQRVTISCTGSSSNIGASYDVHWYQHLPGTAPKLLIYGNTNRPSGVPDRFSGSKSGTSASLAITGLQAEDEADYYCQSYDSSLSGVVFSGGTKLTVL
B6: MERS-CoV S protein receptor binding domain (RBD), England1 strain, soluble (other)
chain: EAKPSGSVVEQAEGVECDFSPLLSGTPPQVYNFKRLVFTNCNYNLTKLLSLFSVNDFTCSQISPAAIASNCYSSLILDYFSYPLSMKSDLSVSSAGPISQFNYKQSFSNPTCLILATVPHNLTTITKPLKYSYINKCSRFLSDDRTEVPQLVNANQYSPCVSIVPSTVWEDGDYYRKQLSPLEGGGWLVASGSTVAMTEQLQMGFGITVQYGTDTNSVCPKLEFANDTKIASQLGNCVEY
B7: FIB_B2 NHP antibody (antibody, V domains shown)
VH: QVQLQESGPGLVKPSETLSLTCAVSGGSISSNYWYWIRQSPVKGLEWIGYIYGGSGGTEYNPSLKSRVTISTDTSKNQFFLKLSSVTAADTAVYYCARSFYSWNGESWGQGVVVTVSS
VL: DIQMSQTPSSLSASVGDRVTITCRASQGINDYLNWYQQKPGKAPKLLIYYGNSLASGVPSRFSGSGSGTDFSLTISSLQPEDFATYYCQQGDSFPLTFGGGTKVDIK
B8: FIB_H1 NHP antibody (antibody, V domains shown)
VH: EVQLVQSGAEVKKPGASVKVSCKASGHIFTSYVINWLQEAPGQGFEWMGGIHPGNGGRDYAQKFQGRVTITADMSTSTVYMELRSLRSEDMAVYYCAASSGSYGVSSLDVWGRGVLVTVSS
VL: QSALTQPPSLSASPGASARLPCTLSSDLSVGSKNMYWYQQKPGSAPRLFLYYYSDSDKQLGPGVPNRVSGSKETSSNTAFLLISGLQPEDEADYYCQVYDSSANWVFGGGTRLTVL

Assay [1] concerns the target T1, MERS-CoV S1 protein, England1 strain, ….
For assay [2], the target named is B6. The experiment in a line: ELISA, hybridoma supernatant. In general terms: In an ELISA, binding on a coated surface is turned into a signal by an enzyme label.
Assay [3] deals with T2, MERS-CoV Spike (S) glycoprotein, …. Nature of the assay: cell-based or functional assay.
Assay [4] deals with T1, MERS-CoV S1 protein, England1 strain, …. Nature of the assay: ELISA; x axis 'Protein concentration (µg/ml)'.
Assay [5] concerns the target T2, MERS-CoV Spike (S) glycoprotein, …. Nature of the assay: cell-based or functional assay. The source holds these as a separate data set.
For assay [6], the target named is T1, MERS-CoV S1 protein, England1 strain, …. The experiment in a line: ELISA, hybridoma supernatant.
Assay [7] concerns the target B6. The experiment in a line: ELISA; x axis 'Protein concentration (µg/ml)'.
The target of assay [8] is B6. Nature of the assay: ELISA specificity (FIG. 22), told only by this label.
Assay [9] addresses B6.
Assay [10] addresses B6. Nature of the assay: ELISA on RBD, mAb titrated 0.0032-10 µg/ml.
Assay [11] concerns the target D12 antibody. Nature of the assay: cell-based or functional assay.
Assay [12] concerns the target T1, MERS-CoV S1 protein, England1 strain, …. The experiment in a line: ELISA on RBD, S1 or S2 coated plates.
Assay [13] has as its target B6. The experiment in a line: ELISA on RBD coated plates.

D12 antibody, sequence (VH, as listed by the source, chain 1 of 2): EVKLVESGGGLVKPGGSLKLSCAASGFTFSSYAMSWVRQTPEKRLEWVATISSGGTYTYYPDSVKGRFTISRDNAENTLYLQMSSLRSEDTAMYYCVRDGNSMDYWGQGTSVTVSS
D12 antibody, sequence (VL, as listed by the source, chain 2 of 2): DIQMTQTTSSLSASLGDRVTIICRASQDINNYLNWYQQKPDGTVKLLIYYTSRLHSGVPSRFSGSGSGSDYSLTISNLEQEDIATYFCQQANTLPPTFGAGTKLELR

Regarding B1, in [1], the Kd – broadly, the concentration at which binding is half-saturated – is 1.69 nM; the koff (commonly the first-order rate constant of dissociation) was 0.000188 s⁻¹; the kon – broadly, the rate constant with which the complex forms – is 111000 M⁻¹ s⁻¹. Besides, in assay [2], the “ELISA (unit not given)” value is 0.04 and the binding result is reported as “no binding (tested: not given (supernatant))”. For the same molecule, in assay [3], half-maximal inhibition (IC50) required 0.013 µg/mL and it took 0.35 µg/mL to reach the 80% level (IC80). For the same molecule, the EC50 (read off the curve) (in general, the concentration that produces a half-maximal response) in assay [4] was around 0.09 µg/mL.

On to B2, for which, in assay [5], the “pseudotyped MERS-CoV (England1) virus neutralization potency” value was around 10 fold lower. For the same molecule, the “ELISA (unit not given)” value in [2] is 0.05; in [6] it was 0.06. Moreover, in assay [3], half-maximal inhibition (IC50) required 0.133 µg/mL. For the same molecule, the IC80 (usually the point of the concentration-response curve where the effect stands at 80%) in assay [3] worked out at 0.806 µg/mL. In addition, the binding result in assay [7] and in [4] was “no binding (tested: 10 µg/ml)” each time.

In the case of B3, the binding result in assay [8] is recorded as “no binding”.

As for B4, in assay [9], the Kd stood at 114 nM, the koff was 0.0079 s⁻¹ and the kon amounted to 69100 M⁻¹ s⁻¹. In assay [1], this molecule showed a Kd of 3.49 nM, a koff of 0.000391 s⁻¹ and a kon of 112000 M⁻¹ s⁻¹. In assay [6], the “ELISA (unit not given)” value is 2.67. For the same molecule, in [3], the IC50 (usually the concentration at which inhibition is half-maximal) came out at 0.008 µg/mL and the IC80 was 0.052 µg/mL. Also, the “EC50 (read off the curve)” value in assay [10] is around 0.05 µg/mL.

B5: the binding result in assay [8] is reported as “no binding”.

Consider B6, for which the “IC50 (read off the curve)” value in [11] is around 2 µg/mL.

Regarding B7, the binding result in assay [12] is recorded as “binds”; in assay [13], “no binding”.

For the molecule B8, the binding result in [13] is “no binding”.
